This series concerns the molecule itself. Description: cryo-electron tomography; prepores on liposomes (PC, cholesterol, biotinyl PE 6:3:1) held on streptavidin grids; 20 mM HEPES pH 7.5, 150 mM NaCl, 5 mM CaCl2; 5-10 min at 37°C; protein to lipid about 1:10,000.

B1: TMH1-lock mutant of perforin (A144C-W373C) (natural protein, mouse, UniProt P10820 21-554, looked up)
chain: PCYTATRSECKQKHKFVPGVWMAGEGMDVTTLRRSGSFPVNTQRFLRPDRTCTLCKNSLMRDATQRLPVAITHWRPHSSHCQRNVAAAKVHSTEGVAREAAANINNDWRVGLDVNPRPEANMRCSVAGSHSKVANFAAEKTYQDQYNFNSDTVECRMYSFRLVQKPPLHLDFKKALRALPRNFNSSTEHAYHRLISSYGTHFITAVDLGGRISVLTALRTCQLTLNGLTADEVGDCLNVEAQVSIGAQASVSSEYKACEEKKKQHKMATSFHQTYRERHVEVLGGPLDSTHDLLFGNQATPEQFSTWTASLPSNPGLVDYSLEPLHTLLEEQNPKREALRQAISHYIMSRARCQNCSRPCRSGQHKSSHDSCQCECQDSKVTNQDCCPRQRGLAHLVVSNFRAEHLWGDYTTATDAYLKVFFGGQEFRTGVVWNNNNPRWTDKMDFENVLLSTGGPLRVQVWDADYGWDDDLLGSCDRSPHSGFHEVTCELNHGRVKFSYHAKCLPHLTGGTCLEYAPQGLLGDPPGNRSGAVW
modifications: engineered disulphide bond between A144C and W373C
notes: perforin, mouse, with the engineered disulphide A144C-W373C that tethers TMH1 to the core of the MACPF domain; also called A144C-W373C perforin; source: baculovirus/insect cell system, purified from the supernatant
With B1, the binding result was “binds”.

These data come from publication doi:10.1101/2021.07.03.450947, “The pore conformation of lymphocyte perforin” (bioRxiv, 2021).
